The target in this assay is T1, outer membrane usher FimD (Escherichia coli, UniProt P30130 46-878).
T1 sequence: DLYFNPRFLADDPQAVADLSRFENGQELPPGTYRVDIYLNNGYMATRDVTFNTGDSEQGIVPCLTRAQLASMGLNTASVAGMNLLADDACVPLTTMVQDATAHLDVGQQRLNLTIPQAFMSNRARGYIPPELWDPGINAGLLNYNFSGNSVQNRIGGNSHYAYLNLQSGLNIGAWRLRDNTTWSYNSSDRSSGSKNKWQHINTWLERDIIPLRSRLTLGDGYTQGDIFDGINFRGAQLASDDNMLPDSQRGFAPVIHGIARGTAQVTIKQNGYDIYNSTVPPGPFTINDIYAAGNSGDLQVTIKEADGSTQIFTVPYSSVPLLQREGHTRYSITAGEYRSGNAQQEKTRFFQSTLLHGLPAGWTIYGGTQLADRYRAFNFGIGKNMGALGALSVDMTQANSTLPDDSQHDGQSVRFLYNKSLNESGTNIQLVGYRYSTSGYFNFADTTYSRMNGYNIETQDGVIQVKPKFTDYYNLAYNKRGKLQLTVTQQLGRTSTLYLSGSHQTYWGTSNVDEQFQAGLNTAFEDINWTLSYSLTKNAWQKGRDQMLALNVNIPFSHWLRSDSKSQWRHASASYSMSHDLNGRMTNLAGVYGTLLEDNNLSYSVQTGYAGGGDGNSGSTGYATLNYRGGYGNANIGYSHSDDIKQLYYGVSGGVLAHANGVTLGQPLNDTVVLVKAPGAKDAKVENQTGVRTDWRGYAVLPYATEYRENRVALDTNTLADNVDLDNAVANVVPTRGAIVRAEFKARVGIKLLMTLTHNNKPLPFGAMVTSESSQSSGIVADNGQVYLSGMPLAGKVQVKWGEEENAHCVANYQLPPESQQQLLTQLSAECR
In words: cryo-EM structure.

B1: FimC chaperone (natural protein)
chain: GVALGATRVIYPAGQKQEQLAVTNNDENSTYLIQSWVENADGVKDGRFIVTPPLFAMKGKKENTLRILDATNNQLPQDRESLFWMNVKAIPSMDKSKLTENTLQLAIISRIKLYYRPAKLALPPDQAAEKLRFRRSANSLTLINPTPYYLTVTELNAGTRVLENALVPPMGESTVKLPSDAGSNITYRTINDYGALTPKMTGVME
As to B1, the binding result is recorded as “binds”.

B2: pilus subunit FimG (natural protein)
chain: ADVTITVNGKVVAKPCTVSTTNATVDLGDLYSFSLMSAGAASAWHDVALELTNCPVGTSRVTASFSGAADSTGYYKNQGTAQNIQLELQDDSGNTLNTGATKTVQVDDSSQSAHFPLQVRALTVNGGATQGTIQAVISITYTYS
Regarding B2, the binding result was “binds”.

Values taken from publication PMC6309448 (Nature, 2018).
